Reference: the RNAGym collection of RNA variant scans (doi:10.1021/acssynbio.7b00057)

B1: Pistol ribozyme (parent)
chain: GGGUCGUUGUUCCAUAAUCGCGUGGAUAUGGCACGCAAGUUUCUACCGGGCACCGUAAAUGUCCGACUGGAGCCGUUCGGGCGGCUAUAAACAGACCUCAGGCCCGAAGCGUGGCGGCACCUGCCGCCGGUGGUAAAAAAGAUCGGAAGAGCACACGUCU

Variants of: B1
Test: aptazyme ON/OFF ratio, guanine; higher = stronger switching; co-transcriptional cleavage with and without guanine

| Variant | aptazyme ON/OFF ratio |
| --- | --- |
| U7A U8A G9U U10G C12G C13G | 1.08 |
| U7A U8A G9U U10G C12G C13U | 1.23 |
| U7A U8A G9U U10G C12G C13A | 1.21 |
| U7A U8A U10A U11G C12U C13G | 1.15 |
| U7A U8A U10A U11G C12U C13U | 1.31 |
| U7A U8A U10A U11G C12U C13A | 1.34 |
| U7A U8A G9U U10G U11C C12G C13U | 1.24 |
| U7A U8A G9U U10G U11C C12G C13G | 1.14 |
| U7A U8A G9U U10G U11C C12G C13A | 1.09 |
| U7A U8A U10A U11C C12A C13G | 1.12 |
| U7A U8A U10A U11C C12A C13A | 1.04 |
| U7A U8A U10A U11C C12A C13U | 1.11 |
| U7A U8A U10G U11A C12A C13U | 1.7 |
| U7A U8A U10G U11A C12A C13G | 1.1 |
| U7A U8A U10G U11A C12A C13A | 1.64 |
| U7A U8A U10A U11G C12A | 1.09 |
| U7A U8A U10A U11G C12G | 0.984 |
| U7A U8A U10A U11G C12U | 1.17 |
| U7A U8A U10A C13A | 1.11 |
| U7A U8A U10A C13G | 1.06 |
| U7A U8A U10A C13U | 1.06 |
| U7A U8A U10C C12U C13U | 1.14 |
| U7A U8A U10C C12U C13G | 1.07 |
| U7A U8A U10C C12U C13A | 1.05 |

| Variant | aptazyme ON/OFF ratio |
| --- | --- |
| U7A U8A U10A U11G C12A C13G | 1.07 |
| U7A U8A U10A U11G C12A C13U | 1.18 |
| U7A U8A U10A U11G C12A C13A | 1.19 |
| U7A U8A G9U U10C U11A C12G C13A | 1.25 |
| U7A U8A G9U U10C U11A C12G C13U | 1.16 |
| U7A U8A G9U U10C U11A C12G C13G | 1.17 |
| U7A U8A U10A U11A C13A | 1.16 |
| U7A U8A U10A U11A C13G | 1.18 |
| U7A U8A U10A U11A C13U | 1.11 |
| U7A U8A G9U U11C C12A C13U | 1.17 |
| U7A U8A G9U U11C C12A C13A | 1.12 |
| U7A U8A G9U U11C C12A C13G | 1.13 |
| U7A U8A G9U U10C U11G C12U C13U | 1.22 |
| U7A U8A G9U U10C U11G C12U C13G | 1.07 |
| U7A U8A G9U U10C U11G C12U C13A | 1.15 |
| U7A U8A U10G C12A C13U | 1.19 |
| U7A U8A U10G C12A C13G | 1.06 |
| U7A U8A U10G C12A C13A | 1.21 |
| U7A U8A G9U U10G C13A | 1.24 |
| U7A U8A G9U U10G C13U | 1.36 |
| U7A U8A G9U U10G C13G | 1.21 |
| U7A U8A U10A U11A C12A C13G | 1.19 |
| U7A U8A U10A U11A C12A C13A | 1.12 |
| U7A U8A U10A U11A C12A C13U | 1.25 |

| Variant | aptazyme ON/OFF ratio |
| --- | --- |
| U7A U8A U10G U11A C12U | 1.24 |
| U7A U8A U10G U11A C12G | 1.34 |
| U7A U8A U10G U11A C12A | 1.4 |
| U7A U8A G9U U10G U11C C12U C13G | 1.22 |
| U7A U8A G9U U10G U11C C12U C13U | 1.28 |
| U7A U8A G9U U10G U11C C12U C13A | 1.09 |
| U7A U8A U10C U11C C12G | 1.2 |
| U7A U8A U10C U11C C12A | 1.17 |
| U7A U8A U10C U11C C12U | 1.07 |
| U7A U8A G9U U10G U11C C13A | 1.06 |
| U7A U8A G9U U10G U11C C13U | 1.02 |
| U7A U8A G9U U10G U11C C13G | 1.09 |
| U7A U8A G9U U10G U11A C12A | 1.29 |
| U7A U8A G9U U10G U11A C12U | 1.07 |
| U7A U8A G9U U10G U11A C12G | 1.32 |
| U7A U8A G9U U11A C12A C13G | 1.12 |
| U7A U8A G9U U11A C12A C13U | 1.22 |
| U7A U8A G9U U11A C12A C13A | 1.04 |
| U7A U8A U10A U11A C12G C13G | 1.45 |
| U7A U8A U10A U11A C12G C13A | 1.05 |
| U7A U8A U10A U11A C12G C13U | 1.13 |
| U7A U8A G9U U11C C12G | 1.19 |
| U7A U8A G9U U11C C12U | 1.13 |
| U7A U8A G9U U11C C12A | 1.17 |

| Variant | aptazyme ON/OFF ratio |
| --- | --- |
| U7A U8A G9U U10C U11G C12A C13A | 1.14 |
| U7A U8A G9U U10C U11G C12A C13U | 1.18 |
| U7A U8A G9U U10C U11G C12A C13G | 1.11 |
| U7A U8A G9U U11G C12A C13G | 1.27 |
| U7A U8A G9U U11G C12A C13A | 1.29 |
| U7A U8A G9U U11G C12A C13U | 1.22 |
| U7A U8A U10G U11C C12A | 1.61 |
| U7A U8A U10G U11C C12G | 1.32 |
| U7A U8A U10G U11C C12U | 1.1 |
| U7A U8A U10A U11G C13U | 1.26 |
| U7A U8A U10A U11G C13A | 1.16 |
| U7A U8A U10A U11G C13G | 1.28 |
| U7A U8A G9U U10G U11A C12U C13A | 1.14 |
| U7A U8A G9U U10G U11A C12U C13G | 1.15 |
| U7A U8A G9U U10G U11A C12U C13U | 1.13 |
| U7A U8A G9U U11A C12U C13G | 1.23 |
| U7A U8A G9U U11A C12U C13A | 1.04 |
| U7A U8A G9U U11A C12U C13U | 1.28 |
| U7A U8A G9U U11G C13G | 1.08 |
| U7A U8A G9U U11G C13A | 1.13 |
| U7A U8A G9U U11G C13U | 1.16 |
| U7A U8A U10A U11C C12U C13U | 1.04 |
| U7A U8A U10A U11C C12U C13G | 1.1 |
| U7A U8A U10A U11C C12U C13A | 1.11 |

| Variant | aptazyme ON/OFF ratio |
| --- | --- |
| U7A U8A G9U U10C U11G C12U | 1.22 |
| U7A U8A G9U U10C U11G C12G | 1.15 |
| U7A U8A G9U U10C U11G C12A | 1.04 |
| U7A U8A G9U U11A C13U | 1.26 |
| U7A U8A G9U U11A C13G | 1.06 |
| U7A U8A G9U U11A C13A | 1.19 |
| U7A U8A G9U U10G U11A C13A | 1.02 |
| U7A U8A G9U U10G U11A C13U | 1.1 |
| U7A U8A G9U U10G U11A C13G | 1.04 |
| U7A U8A U10C U11C C12U C13U | 1.05 |
| U7A U8A U10C U11C C12U C13A | 1.04 |
| U7A U8A U10C U11C C12U C13G | 1.15 |
| U7A U8A U10G C12U | 1.35 |
| U7A U8A U10G C12A | 1.33 |
| U7A U8A U10G C12G | 1.43 |
| U7A U8A G9U U11G C12G | 1.19 |
| U7A U8A G9U U11G C12A | 1.1 |
| U7A U8A G9U U11G C12U | 1.31 |
| U7A U8A G9U U10C U11C C12G C13G | 1.07 |
| U7A U8A G9U U10C U11C C12G C13A | 1.07 |
| U7A U8A G9U U10C U11C C12G C13U | 1.04 |
| U7A U8A U10C U11A C12A C13A | 1.1 |
| U7A U8A U10C U11A C12A C13U | 1.16 |
| U7A U8A U10C U11A C12A C13G | 1.18 |

| Variant | aptazyme ON/OFF ratio |
| --- | --- |
| U7A U8A U10C C13A | 1.11 |
| U7A U8A U10C C13G | 1.09 |
| U7A U8A U10C C13U | 1.98 |
| U7A U8A U10C U11C C12G C13G | 1.21 |
| U7A U8A U10C U11C C12G C13A | 1.1 |
| U7A U8A U10C U11C C12G C13U | 1.08 |
| U7A U8A G9U U10G U11G C12U C13G | 1.24 |
| U7A U8A G9U U10G U11G C12U C13A | 1.47 |
| U7A U8A G9U U10G U11G C12U C13U | 1.22 |
| U7A U8A U10C U11G C13U | 1.17 |
| U7A U8A U10C U11G C13G | 1.2 |
| U7A U8A U10C U11G C13A | 1.13 |
| U7A U8A U10C U11A C12A | 1.24 |
| U7A U8A U10C U11A C12G | 1.19 |
| U7A U8A U10C U11A C12U | 1.14 |
| U7A U8A U10C U11A C12G C13A | 1.12 |
| U7A U8A U10C U11A C12G C13G | 1.24 |
| U7A U8A U10C U11A C12G C13U | 1.12 |
| U7A U8A U10G | 1.52 |
| U7A U8A U10C | 3.05 |
| U7A U8A U10A | 1.05 |
| U7A U8A U10A U11G | 1.17 |
| U7A U8A U10A U11C | 0.996 |
| U7A U8A U10A U11A | 1.18 |

| Variant | aptazyme ON/OFF ratio |
| --- | --- |
| U7A U8A U10G U11A C13G | 1.16 |
| U7A U8A U10G U11A C13A | 1.19 |
| U7A U8A U10G U11A C13U | 1.15 |
| U7A U8A U10C C12A C13U | 1.18 |
| U7A U8A U10C C12A C13A | 1.13 |
| U7A U8A U10C C12A C13G | 1.08 |
| U7A U8A G9U U11A C12U | 1.15 |
| U7A U8A G9U U11A C12A | 1.25 |
| U7A U8A G9U U11A C12G | 1.33 |
| U7A U8A G9U U10C U11C C12A | 1.04 |
| U7A U8A G9U U10C U11C C12G | 1.06 |
| U7A U8A G9U U10C U11C C12U | 1.02 |
| U7A U8A U10C U11A C12U C13G | 1.1 |
| U7A U8A U10C U11A C12U C13U | 1.11 |
| U7A U8A U10C U11A C12U C13A | 1.16 |
| U7A U8A G9U U10C U11G C12G C13G | 1.21 |
| U7A U8A G9U U10C U11G C12G C13A | 1.15 |
| U7A U8A G9U U10C U11G C12G C13U | 1.12 |
| U7A U8A U10G U11C C12G C13G | 1.11 |
| U7A U8A U10G U11C C12G C13U | 1.39 |
| U7A U8A U10G U11C C12G C13A | 1.23 |
| U7A U8A G9U U10C U11C | 1.04 |
| U7A U8A G9U U10C U11G | 1.33 |
